These results are taken from patent US20050037477A1 (BOARD OF REGENTS OF THE UNIVERSITY OF OKLAHOMA, published 2005).

For the test, the target named is T1, human C-terminal HPC-4 epitope-tagged C1β3Gal-T (core 1 β3-galactosyltransferase), full-length (human, UniProt Q9NS00 1-363).
T1 construct: mature; also called HPC4-tagged C1β3Gal-T; recombinant C1β3Gal-T
Description: Ni-NTA capture of His6-tagged wtCosmc-1 from Hi-5 and 293T cell extracts, C1β3Gal-T activity on the beads. Here is the method:
Capture of Human Cosmc-1 on Ni-NTA-Superflow-The Ni-NTA-Superflow beads (100 ml) (Qiagen, Inc.) equilibrated with the Ni-NTA washing buffer containing 50 mM NaH₂PO₄, 300 mM NaCl, 20 mM imidazole, 0.1% Triton X-100 (pH 7.8) were incubated with the cell extracts overnight at 4° C. on a rotator. The beads were washed 5 times with 1 ml of the washing buffer. One portion of the beads was removed for C1β3Gal-T enzyme assay. The bound material in the other portion was eluted with 100 ml of eluting solution (50 mM NaH₂PO₄, 300 mM NaCl, 250 mM imidazole, and 0.1% Triton X-100).
To confirm that Cosmc-1 and C1β3Gal-T can associate, we performed Western Blots on the HPC4-tagged C1β3Gal-T expressed in Hi5 cells and 293T cells with or without His₆-tagged wtCosmc-1 or mCosmc-1. When HPC4-tagged C1β3Gal-T was expressed in Hi5 cells in the absence or presence of wtCosmc-1 or mCosmc-1, a considerable amount protein was generated (FIG. 2G), but the enzyme lacked activity except when co-expressed with wtCosmc-1 (FIG. 2A-C). More importantly, HPC4-tagged C1β3Gal-T was present with His₆-tagged wtCosmc-1 when the latter was captured on Ni-NTA (FIGS. 2G,H). […] There was a slight amount of HPC4-tagged C1β3Gal-T detected in the Ni-NTA bound material in the absence of His₆-tagged wtCosmc-1 in 293T cells (FIG. 2H). […]

T1 sequence (Q9NS00 other isoform, or with tags, fused parts or gaps): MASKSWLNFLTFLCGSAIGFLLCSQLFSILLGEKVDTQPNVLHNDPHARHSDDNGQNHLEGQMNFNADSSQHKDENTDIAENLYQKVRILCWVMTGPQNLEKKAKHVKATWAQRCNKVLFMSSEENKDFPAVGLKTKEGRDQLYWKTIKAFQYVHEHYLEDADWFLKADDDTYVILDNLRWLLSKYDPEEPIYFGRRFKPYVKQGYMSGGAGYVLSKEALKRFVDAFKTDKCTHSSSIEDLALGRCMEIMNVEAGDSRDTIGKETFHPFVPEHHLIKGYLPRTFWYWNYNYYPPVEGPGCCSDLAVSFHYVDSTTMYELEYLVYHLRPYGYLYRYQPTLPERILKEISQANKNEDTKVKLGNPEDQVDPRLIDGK

B1: human C-terminal His6-tagged Cosmc-1 (wild-type; Core 1 β3-Gal-T Specific Molecular Chaperone-1) (other)
chain: MLSESSSFLKGVMLGSIFCALITMLGHIRIGHGNRMHHHEHHHLQAPNKEDILKISEDERMELSKSFRVYCIILVKPKDVSLWAAVKETWTKHCDKAEFFSSENVKVFESINMDTNDMWLMMRKAYKYAFDKYRDQYNWFFLARPTTFAIIENLKYFLLKKDPSQPFYLGHTIKSGDLEYVGMEGGIVLSVESMKRLNSLLNIPEKCPEQGGMIWKISEDKQLAVCLKYAGVFAENAEDADGKDVFNTKSVGLSIKEAMTYHPNQVVEGCCSDMAVTFNGLTPNQMHVMMYGVYRLRAFGHIFNDALVFLPPNGSDNDHHHHHH
notes: Co-expressed with C1β3Gal-T in Hi-5 insect cells or 293T cells and captured from Triton X-100 cell extracts on Ni-NTA; also called wtCosmc-1; wt-Cosmc-1
B1: the binding result is given as “binds”.
